From IntAct's records for PubMed 10921873

Tests used:
[1] = target: cope_yeast SEC28 (UniProt P40509)
[2] = target: copb_yeast SEC26 (UniProt P41810)
[3] = target: glo3_yeast GLO3 (UniProt P38682)
[4] = target: gcs1_yeast GCS1 (UniProt P35197)
[5] = target: glo3_yeast GLO3 (UniProt P38682); remark: listed apart in the source
[6] = target: cope_yeast SEC28 (UniProt P40509); remark: listed apart in the source
[7] = target: gcs1_yeast GCS1 (UniProt P35197); remark: listed apart in the source
[8] = target: copb_yeast SEC26 (UniProt P41810); remark: listed apart in the source

ADP-ribosylation factor 1 (Homo sapiens), P84077 Q71L, sequence (P84077 whole entry Q71L): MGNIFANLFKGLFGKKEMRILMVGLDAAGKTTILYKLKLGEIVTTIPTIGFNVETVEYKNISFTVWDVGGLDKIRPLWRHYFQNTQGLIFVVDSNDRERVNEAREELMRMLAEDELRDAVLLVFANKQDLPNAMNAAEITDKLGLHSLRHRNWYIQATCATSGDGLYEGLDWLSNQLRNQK
gcs1_yeast GCS1, sequence (P35197 whole entry): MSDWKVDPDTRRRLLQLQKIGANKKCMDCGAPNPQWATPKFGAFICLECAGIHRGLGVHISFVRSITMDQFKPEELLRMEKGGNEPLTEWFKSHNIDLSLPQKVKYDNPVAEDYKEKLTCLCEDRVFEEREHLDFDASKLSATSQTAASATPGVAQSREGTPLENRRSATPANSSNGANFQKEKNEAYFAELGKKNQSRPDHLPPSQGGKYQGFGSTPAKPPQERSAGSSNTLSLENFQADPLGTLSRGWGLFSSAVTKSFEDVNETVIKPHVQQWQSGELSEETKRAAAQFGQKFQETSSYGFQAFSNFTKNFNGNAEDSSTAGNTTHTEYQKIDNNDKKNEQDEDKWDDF
copb_yeast SEC26, sequence (P41810 whole entry): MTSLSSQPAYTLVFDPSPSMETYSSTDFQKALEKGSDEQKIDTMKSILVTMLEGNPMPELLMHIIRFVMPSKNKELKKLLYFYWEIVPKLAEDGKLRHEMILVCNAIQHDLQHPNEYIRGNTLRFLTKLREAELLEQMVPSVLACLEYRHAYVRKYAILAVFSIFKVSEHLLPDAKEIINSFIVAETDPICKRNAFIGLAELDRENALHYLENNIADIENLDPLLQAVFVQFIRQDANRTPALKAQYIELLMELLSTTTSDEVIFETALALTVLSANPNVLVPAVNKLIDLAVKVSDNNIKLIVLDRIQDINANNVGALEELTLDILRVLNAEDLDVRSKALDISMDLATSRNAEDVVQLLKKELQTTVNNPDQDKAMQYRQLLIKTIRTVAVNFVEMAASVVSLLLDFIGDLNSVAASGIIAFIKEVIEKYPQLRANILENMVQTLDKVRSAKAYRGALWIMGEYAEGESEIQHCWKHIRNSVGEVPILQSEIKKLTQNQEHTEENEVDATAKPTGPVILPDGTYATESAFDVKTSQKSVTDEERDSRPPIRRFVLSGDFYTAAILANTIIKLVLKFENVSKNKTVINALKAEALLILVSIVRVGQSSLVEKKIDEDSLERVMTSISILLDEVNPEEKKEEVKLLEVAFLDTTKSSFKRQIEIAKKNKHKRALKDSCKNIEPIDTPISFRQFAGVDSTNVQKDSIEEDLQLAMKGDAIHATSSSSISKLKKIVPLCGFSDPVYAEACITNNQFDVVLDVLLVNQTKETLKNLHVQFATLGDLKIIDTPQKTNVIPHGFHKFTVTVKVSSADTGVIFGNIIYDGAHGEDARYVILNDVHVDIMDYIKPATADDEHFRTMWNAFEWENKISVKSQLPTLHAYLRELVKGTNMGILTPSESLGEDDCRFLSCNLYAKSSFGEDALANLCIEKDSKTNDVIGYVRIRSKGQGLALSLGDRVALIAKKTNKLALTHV
cope_yeast SEC28, sequence (P40509 whole entry): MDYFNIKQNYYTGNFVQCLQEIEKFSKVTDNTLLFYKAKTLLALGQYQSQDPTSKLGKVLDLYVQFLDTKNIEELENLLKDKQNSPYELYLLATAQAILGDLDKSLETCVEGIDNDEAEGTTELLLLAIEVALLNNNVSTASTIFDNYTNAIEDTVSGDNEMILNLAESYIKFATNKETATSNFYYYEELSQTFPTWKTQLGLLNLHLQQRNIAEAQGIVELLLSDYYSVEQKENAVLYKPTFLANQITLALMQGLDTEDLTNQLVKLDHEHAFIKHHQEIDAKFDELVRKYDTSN
glo3_yeast GLO3, sequence (P38682 whole entry): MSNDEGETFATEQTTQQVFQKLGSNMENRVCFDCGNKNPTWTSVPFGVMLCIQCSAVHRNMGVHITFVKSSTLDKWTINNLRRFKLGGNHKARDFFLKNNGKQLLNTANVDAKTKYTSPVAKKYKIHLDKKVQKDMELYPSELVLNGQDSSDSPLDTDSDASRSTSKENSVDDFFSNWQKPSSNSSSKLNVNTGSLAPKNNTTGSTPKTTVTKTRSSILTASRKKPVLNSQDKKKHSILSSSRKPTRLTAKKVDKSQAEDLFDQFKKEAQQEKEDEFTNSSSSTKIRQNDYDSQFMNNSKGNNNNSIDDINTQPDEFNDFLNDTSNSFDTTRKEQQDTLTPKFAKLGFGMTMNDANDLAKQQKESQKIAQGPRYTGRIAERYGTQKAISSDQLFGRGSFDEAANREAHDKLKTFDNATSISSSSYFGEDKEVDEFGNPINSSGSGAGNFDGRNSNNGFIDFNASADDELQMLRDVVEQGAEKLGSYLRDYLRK

Row | effect of a mutation on the interaction [1] | effect of a mutation on the interaction [2] | effect of a mutation on the interaction [3] | effect of a mutation on the interaction [4] | effect of a mutation on the interaction [5] | effect of a mutation on the interaction [6] | effect of a mutation on the interaction [7] | effect of a mutation on the interaction [8] | Substance
1 | increasing interaction | increasing interaction | increasing interaction | increasing interaction | – | – | – | – | ADP-ribosylation factor 1 (Homo sapiens), P84077 Q71L
2 | – | – | – | – | increasing interaction | increasing interaction | increasing interaction | increasing interaction | ADP-ribosylation factor 1 (Homo sapiens), P84077 N126I
